Results published in patent US20110311550A1 (Scripps Research, published 2011).

Assays:
Assay in all cases: ELISA, lectin-captured E1E2 lysate, Ab 1 ug/ml;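 further: E1E2 captured on Galanthus nivalis lectin-coated plates, bound test antibody read out by an HRP-linked secondary antibody and TMB colour development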
[1] = target: E1E2 complex (H77) with E1 mutation T255A (HCV genotype 1a, isolate H77, UniProt P27958 192-383; P27958 384-746)
[2] = target: E1E2 complex (H77) with E1 mutation Q193A (HCV genotype 1a, isolate H77, UniProt P27958 192-383; P27958 384-746)
[3] = target: E1E2 complex (H77) with E1 mutation D263A (HCV genotype 1a, isolate H77, UniProt P27958 192-383; P27958 384-746)
[4] = target: E1E2 complex (H77) with E1 mutation M322A (HCV genotype 1a, isolate H77, UniProt P27958 192-383; P27958 384-746)
[5] = target: E1E2 complex (H77) with E1 mutation S198A (HCV genotype 1a, isolate H77, UniProt P27958 192-383; P27958 384-746)
[6] = target: E1E2 complex (H77) with E1 mutation Q289A (HCV genotype 1a, isolate H77, UniProt P27958 192-383; P27958 384-746)
[7] = target: E1E2 complex (H77) with E1 mutation N234A (HCV genotype 1a, isolate H77, UniProt P27958 192-383; P27958 384-746)
[8] = target: E1E2 complex (H77) with E1 mutation D279A (HCV genotype 1a, isolate H77, UniProt P27958 192-383; P27958 384-746)
[9] = target: E1E2 complex (H77) with E1 mutation G225A (HCV genotype 1a, isolate H77, UniProt P27958 192-383; P27958 384-746)
[10] = target: E1E2 complex (H77) with E1 mutation G282A (HCV genotype 1a, isolate H77, UniProt P27958 192-383; P27958 384-746)
[11] = target: E1E2 complex (H77) with E1 mutation P295A (HCV genotype 1a, isolate H77, UniProt P27958 192-383; P27958 384-746)
[12] = target: E1E2 complex (H77) with E1 mutation F291A (HCV genotype 1a, isolate H77, UniProt P27958 192-383; P27958 384-746)
[13] = target: E1E2 complex (H77) with E1 mutation W326A (HCV genotype 1a, isolate H77, UniProt P27958 192-383; P27958 384-746)
[14] = target: E1E2 complex (H77) with E1 mutation P224A (HCV genotype 1a, isolate H77, UniProt P27958 192-383; P27958 384-746)
[15] = target: E1E2 complex (H77) with E1 mutation S211A (HCV genotype 1a, isolate H77, UniProt P27958 192-383; P27958 384-746)
[16] = target: E1E2 complex (H77) with E1 mutation T204A (HCV genotype 1a, isolate H77, UniProt P27958 192-383; P27958 384-746)
[17] = target: E1E2 complex (H77) with E1 mutation H352A (HCV genotype 1a, isolate H77, UniProt P27958 192-383; P27958 384-746)
[18] = target: E1E2 complex (H77) with E1 mutation N196A/N305A (HCV genotype 1a, isolate H77, UniProt P27958 192-383; P27958 384-746)
[19] = target: E1E2 complex (H77) with E1 mutation N305A (HCV genotype 1a, isolate H77, UniProt P27958 192-383; P27958 384-746)
[20] = target: E1E2 complex (H77) with E1 mutation A269G (HCV genotype 1a, isolate H77, UniProt P27958 192-383; P27958 384-746)
[21] = target: E1E2 complex (H77) with E1 mutation W239A (HCV genotype 1a, isolate H77, UniProt P27958 192-383; P27958 384-746)
[22] = target: E1E2 complex (H77) with E1 mutation M324A (HCV genotype 1a, isolate H77, UniProt P27958 192-383; P27958 384-746)

B1: N4 IgG (antibody, V domains shown)
VH: VQLLEQSGPEVKKPGDSLRISCKMSGDSLVTTWIGWVRQKPGQGLEWMGIINPGDSSTNIYPGDSATRYGPSFQGQVTISIDKSTSTAYLQWNNVKASDTGIYYCARHVPVPISGTFLWREREMHDFGYFDDWGQGTLVIVSS
VL: ELTLTQSPGTLSLSPGERATLSCRASQSVSNNYLAWYQQKPGQAPRLLIYGASSRATGIPDRFSGSGSGTGFTLIISRLEPEDFAVYYCQQYGSSSITFGQGTRLEIKR
notes: also called IgG N4
B1 was tested, and the “Binding relative to wt (%)” value [1] was 96%, the “Binding relative to wt (%)” value [2] was 117% and the “Binding relative to wt (%)” value [3] was 85%. The “Binding relative to wt (%)” value [4] was 143%, the “Binding relative to wt (%)” value [5] was 78% and the “Binding relative to wt (%)” value [6] was 94%. The “Binding relative to wt (%)” value [7] was 114%, the “Binding relative to wt (%)” value [8] was 31% and the “Binding relative to wt (%)” value [9] was 79%. For the same binder, the “Binding relative to wt (%)” value [10] was 128%, the “Binding relative to wt (%)” value [11] was 82% and the “Binding relative to wt (%)” value [12] was 131%. The “Binding relative to wt (%)” value [13] was 125%, the “Binding relative to wt (%)” value [14] was 104% and the “Binding relative to wt (%)” value [15] was 93%. For the same binder, the “Binding relative to wt (%)” value [16] was 24%, the “Binding relative to wt (%)” value [17] was 60% and the “Binding relative to wt (%)” value [18] was 4%. The “Binding relative to wt (%)” value [19] was 42%, the “Binding relative to wt (%)” value [20] was 55% and the “Binding relative to wt (%)” value [21] was 67%. The “Binding relative to wt (%)” value [22] was 89%.
